Source: the DeepSol protein solubility set

assay: soluble on expression in E. coli; label from the status in PepcDB or PDB records

Row | Sequence | soluble on expression in E. coli
1 | MSLDYGINFWSDNDFIIEDGQVKINYKTKPAIIDIVKKVREEGYRGPLLLRFPHLIKKQVDKIFTHFETSIKQYHYKGQFKAVFPLKVNQFPNFVLPLVELSQNRCYGLEAGSKAELIIAMAYTNKGSPITVNGFKDKEMISLGFIAANMGHEITLTIEGLNELETIIEVAEEMGKPCPNIGLRIRLHSSGIGIWAKSGGINSKFGLTSTELLEGIRLLEKHKLIEKFTMIHFHIGSQISDISPLKKAMREAGNIYAELRKMGAKNLKSVNIGGGLAVEYTQHEGSPNRNYTLDEFAGDVVFSLKEIAKNKKEPEPDIYIESGRYIAASHALLVAPVLELFSQEYDEKALHLKDKNPQLIEELNELYNTVNEKYAIEYLHDSLDHMESLLTLFDLGYIDLQDRSNTEILVHLIIKKVIKILKHKNHSDIIRIQEQVQERYLLNCSFFQSLPDYWGLEQSFPVMPLDRLNKRPTRSASLWDITCDSDGEIGFDLNKPLFLHDVDVTTEEYFLGFFLVGAYQEVLGMRHNLFTHPTELSVEFEEDGTHSVTNLLEAQTILDVLDDLDYDTKEIERRLKQRIEDSELIDDETRKEVLGQLYVMLSENGYLRTITNGEGHHHHHH | soluble
2 | MVLYFIGLGLYDERDITVKGLEIAKKCDYVFAEFYTSLMAGTTLGRIQKLIGKEIRVLSREDVELNFENIVLPLAKENDVAFLTPGDPLVATTHAELRIRAKRAGVESYVIHAPSIYSAVGITGLHIYKFGKSATVAYPEGNWFPTSYYDVIKENAERGLHTLLFLDIKAEKRMYMTANEAMELLLKVEDMKKGGVFTDDTLVVVLARAGSLNPTIRAGYVKDLIREDFGDPPHILIVPGKLHIVEAEYLVEIAGAPMEILRVNV | soluble
3 | MSVDSEETSSNGVVPPNSLPPKPEARFGRHVRSFSVDSDFFDDLGVTEEKFIATSSGEKKKGNHHHSRSNSMDGEMSSASFNIESILASVSGKDSGKKNMGMGGDRLAELALLDPKRAKRILANRQSAARSKERKIRYTGELERKVQTLQNEATTLSAQVTMLQRGTSELNTENKHLKMRLQALEQQAELRDALNEALRDELNRLKVVAGEIPQGNGNSYNRAQFSSQQSAMNQFGNKTNQQMSTNGQPSLPSYMDFTKRG | soluble
4 | GPLGSKELKVTQPEKSVSVAAGDSTVLNCTLTSLLPVGPIKWYRGVGQSRLLIYSFTGEHFPRVTNVSDATKRNNMDFSIRISNVTPEDAGTYYCVKFQKGPSEPDTEIQSGGGTEVYVL | soluble
5 | MSTIHTPLTYNEINGKPFGLDYELAKQFADYLGVKLKVTVRQNISQLFDDLDNGNADLLAAGLVYNSERVKNYQPGPTYYSVSQQLVYKVGQYRPRTLGNLTAEQLTVAPGHVVVNDLQTLKETKFPELSWKVDDKKGSAELMEDVIEGKLDYTIADSVAISLFQRVHPELAVALDITDEQPVTWFSPLDGDNTLSAALLDFFNEMNEDGTLARIEEKYLGHGDDFDYVDTRTFLRAVDAVLPQLKPLFEKYAEEIDWRLLAAIAYQESHWDAQATSPTGVRGMMMLTKNTAQSLGITDRTDAEQSISGGVRYLQDMMSKVPESVPENERIWFALAAYNMGYAHMLDARALTAKTKGNPDSWADVKQRLPLLSQKPYYSKLTYGYARGHEAYAYVENIRKYQISLVGYLQEKEKQATEAAMQLAQDYPAVSPTELGKEKFPFLSFLSQSSSNYLTHSPSLLFSRKGSEEKQNLEHHHHHH | soluble
6 | MHHHHHHSSGLVPRGSGMKETAAAKFERQHMDSPDLGTDDDDKAMADIGSEFDMANIAVQRIKREFKEVLKSEETSKNQIKVDLVDENFTELRGEIAGPPDTPYEGGRYQLEIKIPETYPFNPPKVRFITKIWHPNISSVTGAICLDILKDQWAAAMTLRTVLLSLQALLAAAEPDDPQDAVVANQYKQNPEMFKQTARLWAHVYAGAPVSSPEYTKKIENLCAAGFDRNAVIVALSSKSWDVETATELLLSN | soluble
7 | MGHHHHHHHHHHSSGHIEGRHMIRLGYPCENLTLGATTNRTLRLAHLTEERVREKAAENLRDLERILRFNADHGFALFRIGQHLIPFASHPLFPYDWEGAYEEELARLGALARAFGQRLSMHPGQYVNPGSPDPEVVERSLAELRYSARLLSLIGAEDGVLVLHLGGAYGEKGKALRRFVENLRGEEEVLRYLALENDERLWNVEEVLKAAEALGVPVVVDTLHHALNPGRLPLEEALRLAFPTWRGRPRVHLASQDPKKRPGAHAFRVTREDWERLLSALPGPADVMVEAKGKEQGLATP | soluble
8 | MKPVPTYVQDKDESTLMFSVCSLVRDQAKYDRLLESFERFGFTPDKAEFLAADNREGNQFHGFSWHKQMLPRCKGRYVIFCHEDVELVDRGYDDLVAAIEALEEADPKWLVAGVAGSPWRPLNHSVTAQALHISDVFGNDRRRGNVPCRVESLDECFLLMRRLKPVLNSYDMQGFHYYGADLCLQAEFLGGRAYAIDFHLHHYGRAIADENFHRLRQEMAQKYRRWFPGRILHCVTGRVALGGGWYEAR | soluble
9 | GSGGIEGRHMVELLKLVRSSGCAAKVGPGDLQEILKGFNIYTDESTLVSIGDDAGVYEHNGIIWVYTVDIITPVVNDPYLWGAISTANALSDVYAMGGIPVNALAISCFNNCELDIEIFREVIRGALDKLREAKTVLLGGHTIDDKEPKFGLSVAGICPEGKYITQSGAQVGQLLILTKPIGTGILIKGLKEGILKEEDINEAIENMLALNDKARNLMLSLDATACTDVTGFGLLGHAWNICKNSNIGARIFFEKVPYYQLSENLVKKKIYPKGAIENLNFVKNYLKSNLDNWKLILLSDPVTSGGLLFTINKEKLEKIDETAKELEVNYWIIGETIAENVLEVL | soluble
10 | AIAGGAVSAGQDNDELIDNLKEAQYIRTEAVEKAFRAIDRADYYLEEFKQNAYRDLAWKHGNIHLSAPCIYSEVMEALDLQPGLSFLNLGSGTGYLNTMAGLILGPFGINHGVEIHADVIEYAKEKLDLFVHTSDSFDRFDFCEPSFVAGNCLDIALDCMYDRVYCGAGVQKEHKEYMKNLIKVGGILVLPLEEKLTKITRTGPSSWETKKILAVSFAPLIQPDHVESAKSKSLQLPLPNIRSLQDLSRITIRRHIKKIVNQVPNGRGDGVMKNPPRYKRKRLRRRPLQTVVYLEEGGFACRIQNSFDDNNNCEGAGNCEGAGDDLAEKEEQGVSETKPNPPVNFLREKILCLPLPVPLKYYLLYYREK | soluble
11 | MSTSLTIRLVAEADWPALHALDQIIWTKKNTPAEIQPLSLAAYQEKMKDETIFVAISGQQLAGFIEVHPPTSLAAHQKQWLLSIGVSPDFQDQGIGGSLLSYIKDMAEISGIHKLSLRVMATNQEAIRFYEKHGFVQEAHFKEEFYINGHYCDDYQYAYFIEK | soluble
12 | MGSDKIHHHHHHMIDFDSLTHDQQLGILQETAEAATANYDLPADVSVDMINLSENATYKIAARDGRRWALRIHRDGYHSRTAIQSELAWLTDLRQTGIVLTPVPVAGKDGEQIQRVGHARLAQPRHVVLSQWETGSEPGIGEALGEPFELLGEVTARMHIHARQWKRPSWFSRHVWDFETSLGEERPHWGRWRDGIGVDAAKARLFGRTAELIGRRLAAFGKGHDRFGLIHCDLRLANLLIDGKTVKVIDFDDCGFGWYMYDAATPISFYEHEPQAADLIRSWTTGYRRVLDLPKADEDEIPTFVMLRRLLLVAWIGSHAETDLAKSMGLPYTEGTVGLCEAYLSKF | not soluble
